In patent US5882644A, “Monoclonal antibodies specific for the platelet derived growth factor β receptor and methods of use thereof” (Protein Design Labs, Inc., priority 1996, dated 1999):

How the values were obtained:
[1] = molecular target: T1, PDGF-R β expressed on transfectant cells (CHO PDGF-R β transfectants, CHO C4 line); Sp2/0 PDGF-R β … (human, UniProt P09619); test: competition with 125I-labeled muM4TS.22 on Sp2/0 PDGF-R β transfectant cells
Procedure: Figure 5: FIG. 5 is a graph depicting competitive binding of muM4TS.22 (closed circles) and HuM4TS.22 (open circles). Increasing concentrations of cold competitor antibodies were incubated with the Sp2/0 transfectants expressing PDGF-R β in the presence of radiolabeled tracer muM4TS.22, and the ratio of bound/free radioactivity determined. The results shown are mean values of triplicate samples.
(§1) To assess the ability of HuM4TS.22 to compete with muM4TS.22 for receptor binding, increasing concentrations of the two antibodies were respectively incubated on ice for one hour with Sp2/0 PDGF-R β transfectant cells and a fixed amount of tracer ^125I-labeled muAb. The sample tubes were processed as in the blocking experiment just described. MuM4TS.22 and HuM4TS.22 competed with equal efficiencies (FIG. 5).

[2] = molecular target: T1, PDGF-R β expressed on transfectant …; test: competition with 125I-labeled M4TS.11 on Sp2/0 PDGF-R β transfectant cells
Procedure: Figure 11: FIG. 11 is a graph depicting competitive binding of muM4TS.11 (closed squares) and HuM4TS.11 (open squares) and HuM4TS.11(gamma 1) (open diamonds). Increasing concentrations of cold competitor antibodies were incubated with the Sp2/0 transfectants expressing PDGF-R β in the presence of radiolabeled tracer muM4TS.11, and the ratio of bound/free radioactivity determined. The results shown are mean values of triplicate samples.
(§2) To assess the ability of HuM4TS.11 to compete with the muAb for receptor binding, increasing concentrations of the two antibodies were respectively incubated on ice for one hour with Sp2/0 PDGF-R β transfectant cells and a fixed amount of tracer ^125I-labeled M4TS.11. The sample tubes were processed as in the blocking experiment described. HuM4TS.11 competed less well than muM4TS.11 (FIG. 11).

[3] = tested on: CHO transfectant cell line expressing PDGF-R β (CHO C4); test: Inhibition of PDGF BB-induced proliferation (3H-thymidine) of CHO C4 cells; assay type: cell-based, Chinese hamster
Procedure: To determine the ability of muM4TS.11 and muM4TS.22 to block PDGF-mediated proliferation, a CHO transfectant cell line expressing PDGF-R β (CHO C4) was generated, as described above. Proliferation of this line, as measured by incorporation of ^3 H-thymidine by DNA synthesis, is stimulated several-fold by PDGF BB. The CHO PDGF-R β transfectants were plated in a 96-well tissue culture plate at about 50,000 cells/well in Ham's F-12+10% FCS and incubated for 1-2 days. The medium was removed, and the cells were washed once with serum-free medium (Ham's F-12+1 mg/ml BSA) and incubated in this media for 1-2 days to put them in a quiescent state. The appropriate amount of antibody in serum-free medium was added, and after 1-3 hours, 50 ng/ml PDGF BB was added. After overnight incubation, 1 μCi ^3 H-thymidine was added, and after a final 4 hour incubation, the cells were harvested using a PHD cell harvester (Cambridge Technology) and analyzed with a scintillation counter.

PDGF-R β = test: Competition with 125I-labeled murine antibody tracer on Sp2/0 PDGF-R β transfectant cells; assay type: binding, human; settings: Sp2/0 PDGF-R β transfectants
Procedure: as §1, with “^125 I-labeled” for “^125I-labeled”, “described.” for “described. MuM4TS.22 and HuM4TS.22 competed with equal efficiencies (FIG. 5).”
as §2, with “^125 I-labeled” for “^125I-labeled”, “[…] The binding affinities calculated from the data were: Ka =5×10^8 M^-1 for the muAb and 3×10^7 M^-1 for the HuAb.” for “HuM4TS.11 competed less well than muM4TS.11 (FIG. 11).”

Molecule	Ka [1] [M⁻¹]	inhibition of PDGF-mediated proliferation compared with another antibody [3]	competition with labeled murine antibody for receptor binding / binding affinity, in words (PDGF-R β)	also measured
HuM4TS.11 (antibody, V domains shown) VH: QVQLVQSGAEVKKPGASVKVSCKASGYTFTNCWMHWVRQAPGQGLEWIGYINPTTGYSEYNQNFKDKATITADKSTSTAYMELSSLRSEDTAVYYCTSNYGHYDWFGNWGQGTLVT VL: DIQMTQSPSSLSASVGDRVTITCRASESVDSYGNSFMHWYQQKPGKAPKLLIYRASNLESGIPSRFSGSGSRTDFTLTISSLQPEDVATYYCQQSNEDPPTFGQGTKVEIK				Ka [2]: 3e+07 M⁻¹
HuM4TS.11(gamma1): same variable domains as HuM4TS.11 but a gamma1 rather than gamma4 heavy chain constant region (antibody, V domains shown) VL: DIQMTQSPSSLSASVGDRVTITCRASESVDSYGNSFMHWYQQKPGKAPKLLIYRASNLESGIPSRFSGSGSRTDFTLTISSLQPEDVATYYCQQSNEDPPTFGQGTKVEIK VH: QVQLVQSGAEVKKPGASVKVSCKASGYTFTNCWMHWVRQAPGQGLEWIGYINPTTGYSEYNQNFKDKATITADKSTSTAYMELSSLRSEDTAVYYCTSNYGHYDWFGNWGQGTLVT		about equally well	higher binding affinity than HuM4TS.11	binding affinity Ka (PDGF-R β; calculated from competitive binding data): 1.6e+08 M⁻¹
HuM4TS.11.2: HuM4TS.11 version in which a few additional human framework residues were changed to their murine counterparts (antibody, V domains shown) VL: DIVLTQSPSSLSASVGDRVTITCRASESVDSYGNSFMHWYQQKPGKAPKLLIYRASNLESGIPSRFSGGGSRTDFTLTISSLQPEDVATYYCQQSNEDPPTFGQGTKVEIK VH: QVQLVQSGAEVKKPGASVKVSCKASGYTFTNCWMHWVKQRPGQGLEWIGYINPTTGYSEYNQNFKDKATLTADKSTSTAYIELSSLRSEDTAVYYCTSNYGHYDWFGNWGQGTLVT		the same level of inhibition of PDGF-stimulated cell proliferation as does HuM4TS.11	the same binding characteristics for PDGF-R β	

Second part, led by results:

Ka [1] [M⁻¹]	Molecule	inhibition of PDGF-mediated proliferation compared with another antibody [3]	competition with labeled murine antibody for receptor binding / binding affinity, in words (PDGF-R β)	also measured
2.6e+08	muM4TS.22 (antibody, V domains shown) VH: QVQLKESGPGLVAPSQSLSITCTVSGFSLTNYAINWVRQPPGQGLEWLGIIWTGGGTSYNSALKSRLSISKDNSKSQVFLKMNSLQTDDTARYYCARTGTRGYFFDYWGQGTTLTVSS VL: DIQMNQSPSSLSASLGDTITITCHASQNINVWLSWYQRKPGNIPKLLIYKASNLHTGVPSRFSGSGSGTGFTLTISSLQPEDIATYYCQQGQSFPFTFGSGTKLEIK			
4e+08	HuM4TS.22 (antibody, V domains shown) VH: QVQLQESGPGLVKPSETLSLTCTVSGFSLTNYAINWVRQPPGKGLEWLGIIWTGGGTSYNSALKSRLTISKDTSKNQVSLKLSSVTAADTAVYYCARTGTRGYFFDYWGQGTLVTVSS VL: DIQMTQSPSSLSASVGDRVTITCHASQNINVWLSWYQQKPGKAPKLLIYKASNLHTGVPSRFSGSGSGTGFTLTISSLQPEDIATYYCQQGQSFPFTFGGGTKVEIK			
